# Target: human Na+-taurocholate co-transporting polypeptide (NTCP), detergent-solubilized, 3C-cleaved (human) (UniProt Q14973)
# Sequence (Q14973 whole entry): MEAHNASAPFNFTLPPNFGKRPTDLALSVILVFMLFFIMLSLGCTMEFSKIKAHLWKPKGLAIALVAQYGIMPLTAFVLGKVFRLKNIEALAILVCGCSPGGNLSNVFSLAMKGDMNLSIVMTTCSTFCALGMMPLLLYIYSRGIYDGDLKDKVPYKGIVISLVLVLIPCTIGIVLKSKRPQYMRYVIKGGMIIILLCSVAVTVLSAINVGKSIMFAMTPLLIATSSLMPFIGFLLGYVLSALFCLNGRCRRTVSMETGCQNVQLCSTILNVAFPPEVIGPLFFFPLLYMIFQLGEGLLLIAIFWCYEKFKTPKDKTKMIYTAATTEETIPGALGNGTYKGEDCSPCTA
substance,measurement,value
bulevirtide (BLV) (peptide),"inhibition of 3H-taurocholate transport (1 uM TC, 8 min) into Flp-In T-Rex cells stably expressing NTCP at increasing concentrations of BLV; at high concentrations BLV fully abolished transport",195 nM

# Source: PMC10954734, “Structure of antiviral drug bulevirtide bound to hepatitis B and D virus receptor protein NTCP” (Nature Communications, 2024)
